Laboratory results: US20150299307A1 (AbbVie / Abbott, published 2015)

Target: T1, human VEGF-A residues 27-191 of Accession # AAV38412 (human, UniProt P15692 27-191)
T1 construct: range 27-191
Assay: SPR (BIAcore T200), cited from Table 21
Protocol: Coupling running buffer was HBS-EP+ running buffer (10 mM HEPES, 150 mM sodium chloride, 3 mM EDTA 0.05% P-20, pH 7.4); assay running buffer was HBS-EP+ with 300 mM sodium chloride and 0.1 mg/mL BSA (Sigma A7906). […] For binding kinetics assay a series of cycles were performed, each cycle consisted of 1) mAb capture, 2) Ag or buffer injection, 3) dissociation phase and 4) regeneration. […] No capture of the antibody was made on the reference surface to serve for primary referencing and as a negative control. […] At the end of each cycle the surface was regenerated with 10 mM glycine, pH 1.5 at a flow rate of 60 μL/min in pulses of 60 and 10 sec. Binding data were fit to the 1:1 Langmuir model with mass transport term included using Biacore T200 Evaluation Software to determine the binding constants.

T1 sequence (P15692 other isoform, or with tags, fused parts or gaps limits assumed): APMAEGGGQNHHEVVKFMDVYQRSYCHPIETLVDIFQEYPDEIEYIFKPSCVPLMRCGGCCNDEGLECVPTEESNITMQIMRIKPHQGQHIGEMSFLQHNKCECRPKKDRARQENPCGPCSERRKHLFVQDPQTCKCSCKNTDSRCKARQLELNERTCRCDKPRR

fold improvement in off-rate over wild type: > 6 fold
B1: bevacizumab variant H97F (taken as IgG format) (antibody, name in Kabat numbering, V domains shown)
VH: EVQLVESGGGLVQPGGSLRLSCAASGYTFTNYGMNWVRQAPGKGLEWVGWINTYTGEPTYAADFKRRFTFSLDTSKSTAYLQMNSLRAEDTAVYYCAKYPFYYGSSHWYFDVWGQGTLVTVSS
VL: DIQMTQSPSSLSASVGDRVTITCSASQDISNYLNWYQQKPGKAPKVLIYFTSSLHSGVPSRFSGSGSGTDFTLTISSLQPEDFATYYCQQYSTVPWTFGQGTKVEIKR
notes: also called H97F mutation alone
